Two molecules from US20190389933A1 (published 2019) can be followed below.

One assay addresses histidine-tagged PD-1 (UniProt Q15116 25-167). In words: Octet. In general terms: Biolayer interferometry detects binding as a change in optical thickness at a sensor tip.
The target in another assay is 21480B. The assay is described as follows: Octet.

Sequence of histidine-tagged PD-1 (Q15116 25-167): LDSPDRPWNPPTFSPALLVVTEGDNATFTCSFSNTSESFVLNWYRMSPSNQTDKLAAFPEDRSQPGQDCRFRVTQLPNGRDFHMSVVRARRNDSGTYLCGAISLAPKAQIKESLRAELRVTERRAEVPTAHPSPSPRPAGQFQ

B1: XENP22553, humanized variant 1C11[PD-1]_H3L3 of anti-PD-1 clone 1C11 (antibody, V domains shown)
VH: QIQLVQSGSELKKPGASVKVSCKASGYTFTHYGMNWVRQAPGQGLEWMGWINTYTGEPTYADGFTGRFVFSLDTSVSTAYLQISSLKAEDTAVYFCARDYYGSSPYWGQGTLVTVSS
VL: DVLMTQSPDSLAVSLGERATINCKSSQSIVHSNGNTYLEWYQQKPGQSPKLLIYKVSNRFSGVPDRFSGSGSGTDFTLTISSLQAEDVAVYYCFQGSHVPNTFGGGTKVEIKR
The term Kd denotes the equilibrium constant for the complex coming apart. High values mean weaker binding, low ones tighter binding. In the assay with histidine-tagged PD-1, B1 showed a dissociation constant Kd of 19.1 nM.

B2: IL2Rbeta (receptor)
chain: AVNGTSQFTCFYNSRANISCVWSQDGALQDTSCQVHAWPDRRRWNQTCELLPVSQASWACNLILGAPDSQKLTTVDIVTLRVLCREGVRWRVMAIQDFKPFENLRLMAPISLQVVHVETHRCNISWEISQASHYFERHLEFEARTLSPGHTWEEAPLLTLKQKQEWICLETLTPDTQYEFQVRVKPLQGEFTTWSPWSQPLAFRTKPAALGKD
B2 had a Kd with 21480B of 8.1 nM.
